Laboratory results reported in patent US12422438B2, “Means and methods for single molecule peptide sequencing” (VIB VZW, priority 2017, dated 2025).

What was measured:
[1] = Organic solvent tolerance of aminopeptidase T, activity with L-leucine-p-nitroanilide substrate; format: biochemical
Procedure: (§1) FIG. 12. Organic solvent tolerance of aminopeptidase T from T. aquaticus. A. The activity of aminopeptidase T was measured with L-leucine-p-nitroanilide substrate. Enzyme and substrate were incubated for 3 h at 40° C. in 50 mM TrisHCl (pH 8) containing different concentrations of the organic solvents acetonitrile (ACN), methanol (MeOH) and ethanol (EtOH). B. Circular dichroism analysis of aminopeptidase T secondary structure in 0% versus 50% MeOH (in 10 mM dipotassium phosphate buffer (K2HPO4)). C. Enzyme activity in varying concentrations of MeOH in buffer (50 mM TrisHCl, pH 8) versus deionized water (MilliQ).
(§2) It is well-known in the art that this can be achieved by solvents (such as methanol) or high temperatures. When these harsh conditions are needed, the aminopeptidases used should tolerate solvents and/or high temperatures. […] At higher organic solvent concentrations, activity can still be detected, albeit lower. […] Furthermore, the enzyme appears to be fully active in deionized (MS grade) water, which might be advantageous when the enzyme will be used with ultra-sensitive chip technology (e.g. electrical biosensor such as field effect transistors) (FIG. 12C).

[2] = L-leucine-p-nitroanilide activity check after labeling with maleimide-DyLight650; format: biochemical; details: N-terminal cysteine labeled with DyLight650
Description: FIG. 13. Site-specific fluorescent labeling of aminopeptidase T. A. SDS-PAGE analysis of aminopeptidase T after labeling the N-terminal cysteine with an equimolar and a 1×, 10×, 100× and 1000× molar excess of maleimide-DyLight650. Aminopeptidase T was visualized with fluorescence (DyLight650 label) and coomassie (total protein). B. Aminopeptidase T activity check with L-leucine-p-nitroanilide after labeling with maleimide-DyLight650.
Recombinant Taq aminopeptidase containing an extra N-terminal cysteine, was incubated overnight with the fluorescent maleimide-DyLight650 probe in the presence of the reducing agent TCEP (10 mM). Maleimide-DyLight650 was added in equimolar concentration, and in 10×, 100× and 1000× excess molar concentration. After separating the aminopeptidase with SDS-PAGE, it was visualized using a Coomassie stain, as well as with fluorescence to evaluate protein labeling with DyLight650.

[3] = Circular dichroism analysis of aminopeptidase T secondary structure; format: physicochemical; details: 0% methanol versus 50% methanol, 10 mM K2HPO4
Procedure: as §1, §2

[4] = target: T1, T. aquaticus aminopeptidase T (Thermus aquaticus, UniProt P23341); assay: Aminopeptidase assay with different amino acid p-nitroanilide substrates at 40° C. and 80° C.; format: biochemical; details: FIG. 11
T1 construct: 6xHis (C); made in house; host or cells: E. coli BL21(DE3), pET24b(+)
T1 sequence (P23341 with tags, fused parts or gaps): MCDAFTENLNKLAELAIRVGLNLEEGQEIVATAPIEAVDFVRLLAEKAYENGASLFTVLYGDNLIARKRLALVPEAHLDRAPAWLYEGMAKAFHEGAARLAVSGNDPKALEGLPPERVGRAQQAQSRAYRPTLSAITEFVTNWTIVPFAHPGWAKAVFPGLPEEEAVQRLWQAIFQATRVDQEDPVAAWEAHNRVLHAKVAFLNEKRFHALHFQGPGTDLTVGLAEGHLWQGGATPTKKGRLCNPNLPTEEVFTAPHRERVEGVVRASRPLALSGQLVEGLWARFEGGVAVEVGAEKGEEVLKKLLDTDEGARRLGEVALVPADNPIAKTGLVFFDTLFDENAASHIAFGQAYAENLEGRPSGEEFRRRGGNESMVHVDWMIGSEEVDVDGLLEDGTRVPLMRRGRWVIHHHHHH
Procedure: FIG. 11. Aminopeptidase assay with different amino acid p-nitroanilide substrates. Enzyme and substrate (1.5 mM) were incubated for 2 h at 40° C. or 80° C. in PBS, after which the released p-nitroanilide was quantified by measuring the absorbance at 405 nm.
As described herein and in line with the invention described in current application, the activity differs between different amino acids. At 80° C., the panel of amino acid substrates can be roughly divided in fast-cleaved (L, M, Y, R, F) and slow-cleaved (D, P) substrates. However, at 40° C. it seems like the panel is divided in fast-cleaved (Y, R) and slow-cleaved (D, P), and substrates that lie in between (L, M, F). […] Finally, TagAPT is not only active in the p-nitroanilide assay. […] The N-terminal amino acid from peptides with proline at the second position is not easily cleaved since peptide bonds adjacent to the amino acid proline are resistant to cleavage by most peptidases (Iyver et al. 2015 FEBS Open Bio. 2015 Apr. 2; 5:292-302). In contrast to what Is stated in Minagawa et al (1988 Agricultural and Biological Chemistry 52:1755-1763) we show here that T. aquaticus aminopeptidase T can cleave N-terminal amino acids even when proline is at the second position. This surprising finding greatly enhances the generic use of Tag-APT in the method and uses disclosed in current application and in single molecule peptide sequencing in general.

[5] = Peptidase assay with L-leucine-p-nitroaniline of purified enzyme; format: biochemical; details: 70° C., PBS buffer
Procedure: A peptidase assay with L-leucine-p-nitroaniline (140 μl PBS buffer, 30 μl 24 mM L-leucine-p-nitroaniline in MeOH and 10 μl purified Tag-APT) confirmed the presence of the active (amino) peptidase, with thermophilic properties (activity at Taq optimum of 70° C.) (FIG. 8).

B1: aminopeptidase T from T. aquaticus: aminopeptidase T from Thermus aquaticus, Cys added at the N-terminus and 6×His at the C-terminus, SEQ ID No. 8 (protein)
chain: MCDAFTENLNKLAELAIRVGLNLEEGQEIVATAPIEAVDFVRLLAEKAYENGASLFTVLYGDNLIARKRLALVPEAHLDRAPAWLYEGMAKAFHEGAARLAVSGNDPKALEGLPPERVGRAQQAQSRAYRPTLSAITEFVTNWTIVPFAHPGWAKAVFPGLPEEEAVQRLWQAIFQATRVDQEDPVAAWEAHNRVLHAKVAFLNEKRFHALHFQGPGTDLTVGLAEGHLWQGGATPTKKGRLCNPNLPTEEVFTAPHRERVEGVVRASRPLALSGQLVEGLWARFEGGVAVEVGAEKGEEVLKKLLDTDEGARRLGEVALVPADNPIAKTGLVFFDTLFDENAASHIAFGQAYAENLEGRPSGEEFRRRGGNESMVHVDWMIGSEEVDVDGLLEDGTRVPLMRRGRWVIHHHHHH
modifications: labeled TaqAPT
acetonitrile concentration up until which enzyme remains completely active ([1]; acetonitrile, 3 h at 40° C., 50 mM TrisHCl (pH 8)): ≤ 33%
enzyme activity in deionized (MS grade) water ([1]; deionized water (MilliQ) versus buffer): fully active
ethanol concentration up until which enzyme remains completely active ([1]; ethanol, 3 h at 40° C., 50 mM TrisHCl (pH 8)): ≤ 33%
methanol concentration up until which enzyme remains completely active ([1]; methanol, 3 h at 40° C., 50 mM TrisHCl (pH 8)): ≤ 50%
function after labeling with maleimide-DyLight650 [2]: does not jeopardize its function
structural differences by circular dichroism (CD) [3]: no structural differences were observed
cleavage of dipeptides with a proline at the second position [4]: cleaves dipeptides even with a proline at the second position
peptidase activity with L-leucine-p-nitroaniline [5]: active
